One protein from patent US6780986 can be followed below.

One series deals with T1, GST-Z2-P123.
T1 chain: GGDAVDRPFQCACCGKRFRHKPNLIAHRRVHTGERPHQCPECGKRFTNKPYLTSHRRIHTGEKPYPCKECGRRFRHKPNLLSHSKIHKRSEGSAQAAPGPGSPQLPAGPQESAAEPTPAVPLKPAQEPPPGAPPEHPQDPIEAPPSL

Series [1] has as its target T2, GST-Z1 (GST fused to the Z1 domain of RIP60, zinc fingers 1-5).
T2 chain: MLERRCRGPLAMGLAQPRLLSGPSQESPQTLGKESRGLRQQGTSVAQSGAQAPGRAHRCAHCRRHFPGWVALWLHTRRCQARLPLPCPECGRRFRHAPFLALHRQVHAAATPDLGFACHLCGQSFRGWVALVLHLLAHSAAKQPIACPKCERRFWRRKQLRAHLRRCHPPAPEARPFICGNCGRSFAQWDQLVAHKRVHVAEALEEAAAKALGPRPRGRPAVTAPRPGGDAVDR

The target in series [2] is T3, GST-Z2 (GST fused to the Z2 domain of RIP60, zinc fingers 6-8 plus 37 amino acids of the proline rich region).
T3 chain: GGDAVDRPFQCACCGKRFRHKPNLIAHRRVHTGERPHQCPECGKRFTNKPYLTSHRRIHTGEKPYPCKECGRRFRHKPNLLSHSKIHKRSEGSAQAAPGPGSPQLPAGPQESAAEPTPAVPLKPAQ

Series [3] addresses T4, GST-Z3 (GST fused to the Z3 domain of RIP60, zinc fingers 9-15).
T4 chain: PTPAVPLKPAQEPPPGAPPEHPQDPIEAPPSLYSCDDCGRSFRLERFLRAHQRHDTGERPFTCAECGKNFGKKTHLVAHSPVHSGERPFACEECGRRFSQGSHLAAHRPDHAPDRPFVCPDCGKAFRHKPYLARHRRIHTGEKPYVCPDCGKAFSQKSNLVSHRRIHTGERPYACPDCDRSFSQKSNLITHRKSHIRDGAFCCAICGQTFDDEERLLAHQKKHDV

B1: casein kinase II (CKII; New England Biolabs) (protein)
chain 1: MSGPVPSRARVYTDVNTHRPREYWDYESHVVEWGNQDDYQLVRKLGRGKYSEVFEAINITNNEKVVVKILKPVKKKKIKREIKILENLRGGPNIITLADIVKDPVSRTPALVFEHVNNTDFKQLYQTLTDYDIRFYMYEILKALDYCHSMGIMHRDVKPHNVMIDHEHRKLRLIDWGLAEFYHPGQEYNVRVASRYFKGPELLVDYQMYDYSLDMWSLGCMLASMIFRKEPFFHGHDNYDQLVRIAKVLGTEDLYDYIDKYNIELDPRFNDILGRHSRKRWERFVHSENQHLVSPEALDFLDKLLRYDHQSRLTAREAMEHPYFYTVVKDQARMGSSSMPGGSTPVSSANMMSGISSVPTPSPLGPLAGSPVIAAANPLGMPVPAAAGAQQ
chain 2: not shown
On to B1, for which the “phosphorylation in vitro (32P-ATP, SDS gel, autoradiography)” value was “Both GST-Z2 and GST-Z2P123 were phosphorylated” with GST-Z2-P123; “neither GST-Z1 nor GST-Z3 were phosphorylated to any great degree” in series [1]; “Only the GST-Z2 polypeptide, which contains the casein kinase II phosphorylation domain was phosphorylated” in series [2]; “neither GST-Z1 nor GST-Z3 were phosphorylated to any great degree” in series [3]. Besides, in series [2], the “phosphorylation in vitro with and without DNA (32P-ATP, SDS gel, autoradiography)” value was “GST-Z2 polypeptide was phosphorylated by casein kinase II in the absence of DNA. However, the extent of phosphorylation increased in the presence of the double stranded DRS oligo, the linearized plasmid pCH127 and the supercoiled pCH127”.
